For the assay, the target named is Alexa488-labeled H3-H4 dimer (UniProt P84233). The experiment in a line: fluorescence polarisation; 5 nM Alexa488-labeled H3-H4 dimer with increasing amounts of CAF-1; 25 mM TRIS pH 7.5, 300 mM NaCl, 5% glycerol, 1 mM EDTA, 0.01% NP-40, 0.01% CHAPS, 1 mM DTT. For orientation: Fluorescence polarisation rises when a labelled molecule tumbles more slowly, as on binding a larger partner.

Some results are limits rather than exact numbers.

In the case of “tCAF_∆3 (tCAF-1 sub-complex lacking the small subunit Cac3) (from UniProt Q12495 233-606; Q04199 1-449)”, the Kd amounted to 1.3 nM. This lies in the single-digit nanomolar range.
As for “Cac2 (middle subunit of yeast CAF-1), C-terminal His-tag (from UniProt Q04199 1-449) (natural protein)”, the figure is greater than 1000 nM; as for “tCAF_∆ac (trimeric tCAF-1 with the acidic region of Cac1 deleted) (from UniProt Q12495 233-606; Q04199 1-449; P13712 1-422) (complex)”, 60 nM; as for “tCAF-1 (tCac1 233-606 with Cac2 and Cac3) (from UniProt Q12495 233-606; Q04199 1-449; P13712 1-422) (complex)”, 0.5 nM.
Regarding “full-length (FL) yeast CAF-1 complex (from UniProt Q12495 1-606; Q04199 1-449; P13712 1-422)”, the Kd came to 0.3 nM.
As for “tCAF_∆2 (tCAF-1 sub-complex lacking the middle subunit Cac2) (from UniProt Q12495 233-606; P13712 1-422)”, the figure is 25 nM.
As for “Cac3 (small subunit of yeast CAF-1) (from UniProt P13712 1-422) (natural protein)”, the figure is 77 nM.
As for “tCAF_Nac (trimeric tCAF-1 with the acidic region of Cac1 replaced by a neutral Gly-Ser-Leu peptide) (from UniProt Q12495 233-606; Q04199 1-449; P13712 1-422) (complex)”, the Kd was determined as 8 nM.

The term Kd denotes the free concentration of one partner at which half of the binding sites on the other are occupied at equilibrium, for simple one-to-one binding. High values mean lower affinity, low ones higher affinity.

The values above are taken from article PMC5394680.
